Test results from patent US20240301385, “DNA MODIFYING ENZYMES AND ACTIVE FRAGMENTS AND VARIANTS THEREOF AND METHODS OF USE” (LIFEEDIT THERAPEUTICS, INC., published 2024).

Experiments:
[1] = target: APG05840.1-L16-nAPG07433.1-USP2 (synthetic); experiment: cell_activity; HEK293FT; PAM SEQ 152; settings: tags: SV40 NLS, 3xFLAG N-term; USP2, nucleoplasmin NLS C-term
Outline: (§1)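 Editing read out by next-generation sequencing (MiSeq 2×250) of PCR amplicons spanning the target site, analysed for INDELs or % cytosine conversion per position (position 1 nearest PAM).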

APG30129-L32-nAPG07433.1 = target: T1, APG30129-L32-nAPG07433.1 (synthetic); experiment: cell_activity; HEK293FT; PAM SEQ 152; settings: tags: SV40 NLS, 3xFLAG N-term; nucleoplasmin NLS C-term
T1 chain: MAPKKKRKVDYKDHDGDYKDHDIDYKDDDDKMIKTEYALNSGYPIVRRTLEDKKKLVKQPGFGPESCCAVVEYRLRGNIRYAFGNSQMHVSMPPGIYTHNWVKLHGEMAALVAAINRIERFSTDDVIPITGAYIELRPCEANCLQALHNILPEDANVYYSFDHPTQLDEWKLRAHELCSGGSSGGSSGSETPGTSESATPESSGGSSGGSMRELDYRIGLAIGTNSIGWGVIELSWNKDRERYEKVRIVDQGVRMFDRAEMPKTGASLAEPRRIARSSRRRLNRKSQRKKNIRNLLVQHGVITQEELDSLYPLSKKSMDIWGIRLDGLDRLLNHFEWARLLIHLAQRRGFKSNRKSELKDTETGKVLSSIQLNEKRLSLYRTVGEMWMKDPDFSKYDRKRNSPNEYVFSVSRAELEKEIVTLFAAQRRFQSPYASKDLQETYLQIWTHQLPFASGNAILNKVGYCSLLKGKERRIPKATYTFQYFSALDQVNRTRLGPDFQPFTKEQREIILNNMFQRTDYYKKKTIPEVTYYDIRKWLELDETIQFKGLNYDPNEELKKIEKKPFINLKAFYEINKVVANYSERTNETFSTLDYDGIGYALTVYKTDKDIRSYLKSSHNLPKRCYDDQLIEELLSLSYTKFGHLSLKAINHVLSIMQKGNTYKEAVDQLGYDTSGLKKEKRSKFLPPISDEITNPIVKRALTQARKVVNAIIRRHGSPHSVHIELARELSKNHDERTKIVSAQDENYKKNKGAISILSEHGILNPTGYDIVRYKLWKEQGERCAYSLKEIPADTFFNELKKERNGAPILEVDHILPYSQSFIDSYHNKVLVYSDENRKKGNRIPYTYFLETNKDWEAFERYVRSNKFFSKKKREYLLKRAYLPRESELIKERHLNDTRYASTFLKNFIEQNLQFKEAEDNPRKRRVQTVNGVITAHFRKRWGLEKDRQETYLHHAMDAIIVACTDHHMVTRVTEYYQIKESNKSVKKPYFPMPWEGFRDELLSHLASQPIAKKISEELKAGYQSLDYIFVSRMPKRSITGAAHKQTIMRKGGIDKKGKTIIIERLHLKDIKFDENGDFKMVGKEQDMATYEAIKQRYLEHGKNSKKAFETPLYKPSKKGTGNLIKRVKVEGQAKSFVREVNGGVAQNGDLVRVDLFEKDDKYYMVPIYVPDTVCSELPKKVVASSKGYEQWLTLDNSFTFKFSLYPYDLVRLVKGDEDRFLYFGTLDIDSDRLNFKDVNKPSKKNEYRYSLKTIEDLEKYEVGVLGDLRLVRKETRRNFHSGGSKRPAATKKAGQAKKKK
Outline: as §1

nAPG07433.1-APG05840 = nAPG07433.1-APG05840 (synthetic); experiment: cell_activity; HEK293FT; C>G predominant; PAM SEQ 152; settings: tags: SV40 NLS, 3xFLAG N-term; nucleoplasmin NLS C-term

B1: SGN001101 sgRNA ; SGN001101 target (ssRNA ; dsDNA)
RNA: AUAUUUUCUUUAAUGGUGCCAGGCAGUCAUAGUUCCAUUAAAGCCAAAAGUGGCUUUGAUGUUUCUAUGAUAAGGGUUUCGACCCGUGGCGUCGGGGAUCGCCUGCCCAUUGAAAUGGGCUUCUCCCCAU
DNA 1: ATATTTTCTTTAATGGTGCCAGGCA
DNA 2: TGCCTGGCACCATTAAAGAAAATAT
Question: B1 was tested. Which activity [1] did it give?
Answer: The activity was 12.7 % mutated reads.

B2: SGN000194 sgRNA ; SGN000194 target (ssRNA ; dsDNA)
RNA: GCCGCACAGCAUUCAGGUCGGUCAUAGUUCCAUUAAAGCCAAAAGUGGCUUUGAUGUUUCUAUGAUAAGGGUUUCGACCCGUGGCGUCGGGGAUCGCCUGCCCAUUGAAAUGGGCUUCUCCCCAUUUAUU
DNA 1: GCCGCACAGCATTCAGGTCG
DNA 2: CGACCTGAATGCTGTGCGGC
Question: B2 was tested. Which activity (APG30129-L32-nAPG07433.1) did it give?
Answer: The activity was 5.92 % mutated reads.

B3: SGN000930 sgRNA ; SGN000930 target (ssRNA ; dsDNA)
RNA: GAACAACUCAAAUGGAAAUGAAUAUGUCAUAGUUCCAUGAAAGCCAAAAGUGGCUUUGAUGUUUCUAUGAUAAGGGUUUCGGCCCGUGGCGUCGGGGAUCGCCUGCCCAUUCCGAUGGGCUUCUCCCCAUUUAUU
DNA 1: GAACAACTCAAATGGAAATGAATAT
DNA 2: ATATTCATTTCCATTTGAGTTGTTC
Question: Which activity [1] does the source give for B3 here?
Answer: Its activity is 13.1 % mutated reads.

Question: What about the activity (APG30129-L32-nAPG07433.1) of the same binder?
Answer: Its activity is 3.47 % mutated reads.

Question: What about the activity (nAPG07433.1-APG05840) of the same binder?
Answer: The activity was 17.5 % mutated reads.
